What was measured:
[1] = target: T1, 1-27 CD3-Fc (N-terminal amino acids 1-27 of the mature human CD3 epsilon chain fused to the hinge and Fc … (human)); assay: SPR (Biacore), 1-27 CD3-Fc immobilised
T1 construct: The construct was made with a 19 aa immunoglobulin leader; also called 27 aa huCD3E; human CD3 epsilon (aa 1-27)-Fc fusion protein

[2] = target: T2, human CD3 (native CD3 complex on human T cells) (human, UniProt P07766 23-207); assay: FACS, HPB-ALL
T2 construct: whole, on cells; also called human CD3+ T cell line HPB-ALL; human CD3 positive PBMC
T2 sequence (P07766 23-207, one chain of several): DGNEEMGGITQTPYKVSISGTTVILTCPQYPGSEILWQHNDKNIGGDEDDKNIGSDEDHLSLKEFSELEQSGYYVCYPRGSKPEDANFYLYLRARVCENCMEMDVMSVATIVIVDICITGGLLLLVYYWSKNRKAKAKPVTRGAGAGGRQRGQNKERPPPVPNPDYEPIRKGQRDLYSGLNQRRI

Binder	Kd [1] [nM]	binding result [2]
EGFR-21-63 LH × A2J HLP (bispecific antibody, also called EGFR LH × A2J HLP) DIVLTQSPASLPVSLGQRATISCRASQSVSSSTYSYIHWYQQKPGQPPKLLITYASNLESGVPARFSGSGSGTDFTLDIHPVEEDDSSTYYCQHSWEIPFTFGSGTKLEIKGGGGSGGGGSGGGGSQVQLQQSGPDLVKPGASVKMSCKASGHTFTDCVIIWVKQRAGQGLEWIGQIYPGTGRSYYNEIFKGKATLTADKSSNTVHIQLSSLTSEDSAVYFCALSTLIHGTWFSYWGQGTLVTVSSGGGGSEVQLLESGGGLVQPGGSLKLSCAASGFTFNVYAMNWVRQAPGKGLEWVARIRSKYNNYATYYADSVKKRFTISRDDSKNTAYLQMNNLKTEDTAVYYCVRHGNFGNSYLSWWAYWGQGTLVTVSSGGGGSGGGGSGGGGSELVVTQEPSLTVSPGGTVTLTCRSSTGAVTSGYYPNWVQQKPGQAPRGLIGATDMRPSGTPARFSGSLLGGKAALTLSGVQPEDEAEYYCALWYSNRWVFGGGTKLTVLHHHHHH	249	–
EGFR-21-63 LH × E2M HLP (bispecific antibody, also called EGFR LH × E2M HLP) DIVLTQSPASLPVSLGQRATISCRASQSVSSSTYSYIHWYQQKPGQPPKLLITYASNLESGVPARFSGSGSGTDFTLDIHPVEEDDSSTYYCQHSWEIPFTFGSGTKLEIKGGGGSGGGGSGGGGSQVQLQQSGPDLVKPGASVKMSCKASGHTFTDCVIIWVKQRAGQGLEWIGQIYPGTGRSYYNEIFKGKATLTADKSSNTVHIQLSSLTSEDSAVYFCALSTLIHGTWFSYWGQGTLVTVSSGGGGSEVQLLESGGGLVQPGGSLKLSCAASGFTFNGYAMNWVRQAPGKGLEWVARIRSKYNNYATYYADSVKERFTISRDDSKNTAYLQMNNLKTEDTAVYYCVRHRNFGNSYLSWFAYWGQGTLVTVSSGGGGSGGGGSGGGGSELVVTQEPSLTVSPGGTVTLTCRSSTGAVTSGYYPNWVQQKPGQAPRGLIGATDMRPSGTPARFSGSLLGGKAALTLSGVQPEDEAEYYCALWYSNRWVFGGGTKLTVLHHHHHH	2460	–
MCSP-G4 HLP × E2M HLP (bispecific antibody) QVQLVQSGAEVKRPGASMKVSCKASGYTFTNYYIHWVRQAPGQGLEWMGWINPNSGATNYAQKFQGRVTMTRDTSTSTVYMELSSLRSEDTAVYYCAKSWVSWFASWGQGTLVTVSSGGGGSGGGGSGGGGSELVMTQSPDSLAVSLGERATINCKSSQSVLNSSNNRNYLAWYQQKPGQPPKLLIYWASTRESGVPDRFSGSGSGTDFTLTISGLQAEDVAVYYCQQHYSTPFTFGPGTKVDIKSGGGGSEVQLLESGGGLVQPGGSLKLSCAASGFTFNGYAMNWVRQAPGKGLEWVARIRSKYNNYATYYADSVKERFTISRDDSKNTAYLQMNNLKTEDTAVYYCVRHRNFGNSYLSWFAYWGQGTLVTVSSGGGGSGGGGSGGGGSELVVTQEPSLTVSPGGTVTLTCRSSTGAVTSGYYPNWVQQKPGQAPRGLIGATDMRPSGTPARFSGSLLGGKAALTLSGVQPEDEAEYYCALWYSNRWVFGGGTKLTVLHHHHHH	–	binds

— patent US20230357444A1 (published 2023)
